# In the supplement of paper PMC5998384:
# Experiments:
# [1] = tested on: HeLa Kyoto; test: solubility change mitosis vs G1/S (difference of NP-40 vs SDS log2 ratios) (log2 ratio difference); higher = more soluble in mitosis
# [2] = tested on: HeLa Kyoto; test: melting temperature (median over replicates), in situ; higher = more thermally stable
# [3] = tested on: HeLa Kyoto; test: thermal stability score vs G1/S (z-score of summed log2 fold changes over temperatures); higher = more thermally stable than in G1/S
# [4] = tested on: HeLa Kyoto; test: solubility in G1/S (NP-40 vs SDS abundance) (log2 ratio); higher = more soluble; conditions: cell cycle stage: G1/S
# [5] = cell cycle stage: early G1 (4.5 h after nocodazole release)
# 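For melting temperature (median over replicates), in situ in this document: HeLa Kyoto cells synchronized by double thymidine or nocodazole block, proteins quantified by TMT10plex mass spectrometry, three independent biological replicates.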
# 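For solubility change mitosis vs G1/S (difference of NP-40 vs SDS log2 ratios) in this document: synchronized HeLa Kyoto cells (double thymidine block for G1/S, nocodazole release for mitosis), protein amounts in NP-40 versus SDS lysates quantified by mass spectrometry, three biological replicates.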
# 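For solubility in G1/S (NP-40 vs SDS abundance) in this document: HeLa Kyoto cells arrested at G1/S by double thymidine block, proteins quantified by TMT10plex mass spectrometry in mild NP-40 versus SDS extracts, three biological replicates.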
# 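For thermal stability score vs G1/S (z-score of summed log2 fold changes over temperatures) in this document: synchronized HeLa Kyoto cells, proteins quantified by TMT10plex mass spectrometry, three biological replicates, mitosis taken 0.5 h after nocodazole release, G1/S directly after double thymidine block.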
Sequence,solubility change mitosis (log2) [1],melting temperature ([2]; cell cycle stage: G1/S) [°C],melting temperature ([2]; cell cycle stage: mitosis) [°C],"thermal stability score [3, 5]",thermal stability score ([3]; cell cycle stage: mitosis),solubility in G1/S (log2) [4]
MSPKRIAKRRSPPADAIPKSKKVKVSHRSHSTEPGLVLTLGQGDVGQLGLGENVMERKKPALVSIPEDVVQAEAGGMHTVCLSKSGQVYSFGCNDEGALGRDTSVEGSEMVPGKVELQEKVVQVSAGDSHTAALTDDGRVFLWGSFRDNNGVIGLLEPMKKSMVPVQVQLDVPVVKVASGNDHLVMLTADGDLYTLGCGEQGQLGRVPELFANRGGRQGLERLLVPKCVMLKSRGSRGHVRFQDAFCGAYFTFAISHEGHVYGFGLSNYHQLGTPGTESCFIPQNLTSFKNSTKSWVGFSGGQHHTVCMDSEGKAYSLGRAEYGRLGLGEGAEEKSIPTLISRLPAVSSVACGASVGYAVTKDGRVFAWGMGTNYQLGTGQDEDAWSPVEMMGKQLENRVVLSVSSGGQHTVLLVKDKEQS [RCC1],0.0534,48,49.1,1.88,3.04,-0.0854
MSPPSPGRRREQRRPRAAATMATPLPGRAGGPATPLSPTRLSRLQEKEELRELNDRLAHYIDRVRALELENDRLLLKISEKEEVTTREVSGIKALYESELADARRVLDETARERARLQIEIGKLRAELDEVNKSAKKREGELTVAQGRVKDLESLFHRSEVELAAALSDKRGLESDVAELRAQLAKAEDGHAVAKKQLEKETLMRVDLENRCQSLQEELDFRKSVFEEEVRETRRRHERRLVEVDSSRQQEYDFKMAQALEELRSQHDEQVRLYKLELEQTYQAKLDSAKLSSDQNDKAASAAREELKEARMRLESLSYQLSGLQKQASAAEDRIRELEEAMAGERDKFRKMLDAKEQEMTEMRDVMQQQLAEYQELLDVKLALDMEINAYRKLLEGEEERLKLSPSPSSRVTVSRATSSSSGSLSATGRLGRSKRKRLEVEEPLGSGPSVLGTGTGGSGGFHLAQQASASGSVSIEEIDLEGKFVQLKNNSDKDQSLGNWRIKRQVLEGEEIAYKFTPKYILRAGQMVTVWAAGAGVAHSPPSTLVWKGQSSWGTGESFRTVLVNADGEEVAMRTVKKSSVMRENENGEEEEEEAEFGEEDLFHQQGDPRTTSRGCYVM [LMNB2],1.67,51.4,50.3,-7.21,-6.08,-1.66
MSPTPPLFSLPEARTRFTKSTREALNNKNIKPLLSTFSQVPGSENEKKCTLDQAFRGILEEEIINHSSCENVLAIISLAIGGVTEGICTASTPFVLLGDVLDCLPLDQCDTIFTFVEKNVATWKSNTFYSAGKNYLLRMCNDLLRRLSKSQNTVFCGRIQLFLARLFPLSEKSGLNLQSQFNLENVTVFNTNEQESTLGQKHTEDREEGMDVEEGEMGDEEAPTTCSIPIDYNLYRKFWSLQDYFRNPVQCYEKISWKTFLKYSEEVLAVFKSYKLDDTQASRKKMEELKTGGEHVYFAKFLTSEKLMDLQLSDSNFRRHILLQYLILFQYLKGQVKFKSSNYVLTDEQSLWIEDTTKSVYQLLSENPPDGERFSKMVEHILNTEENWNSWKNEGCPSFVKERTSDTKPTRIIRKRTAPEDFLGKGPTKKILMGNEELTRLWNLCPDNMEACKSETREHMPTLEEFFEEAIEQADPENMVENEYKAVNNSNYGWRALRLLARRSPHFFQPTNQQFKSLPEYLENMVIKLAKELPPPSEEIKTGEDEDEEDNDALLKENESPDVRRDKPVTGEQIEVFANKLGEQWKILAPYLEMKDSEIRQIECDSEDMKMRAKQLLVAWQDQEGVHATPENLINALNKSGLSDLAESLTNDNETNS [THOC1],0.218,49.7,49.5,0.442,3.3,-0.2
MSPTQWDFPVELCCRPMAFVTLTGLDVVYNAVHRAVWDAFCANRRADRVPISFKVLPGDHEYPKCRPKRTSYEWYIPKGILKTGWMNKHLNLVPALVVVFYELDWDEPQWKEKQSECATRVEIVRQSLQGRNTKVAVVLIQKKTPLPPGEDVIASERAAALCNACELSGKSLFVLPHTDHLVGYIIRLENAFYEHAQTYYYTEIRRVKSHKEFLNKTTHQLLFVRHQFKIAFFSELKQDTQNALKNYRTAYNLVHELRAHETNILEIKTMAGFINYKICRLCFQHNTPLDAIAQFRKHIDLCKKKIGSAELSFEHDAWMSKQFQAFGDLFDEAIKLGLTAIQTQNPGFYYQQAAYYAQERKQLAKTLCNHEASVMYPNPDPLETQTGVLDFYGQRSWRQGILSFDLSDPEKEKVGILAIQLKERNVVHSEIIITLLSNAVAQFKKYKCPRMKSHLMVQMGEEYYYAKDYTKALKLLDYVMCDYRSEGWWTLLTSVLTTALKCSYLMAQLKDYITYSLELLGRASTLKDDQKSRIEKNLINVLMNESPDPEPDCDILAVKTAQKLWADRISLAGSNIFTIGVQDFVPFVQCKAKFHAPSFHVDVPVQFDIYLKADCPHPIRFSKLCVSFNNQEYNQFCVIEEASKANEVLENLTQGKMCLVPGKTRKLLFKFVAKTEDVGKKIEITSVDLALGNETGRCVVLNWQGGGGDAASSQEALQAARSFKRRPKLPDNEVHWDSIIIQASTMIISRVPNISVHLLHEPPALTNEMYCLVVTVQSHEKTQIRDVKLTAGLKPGQDANLTQKTHVTLHGTELCDESYPALLTDIPVGDLHPGEQLEKMLYVRCGTVGSRMFLVYVSYLINTTVEEKEIVCKCHKDETVTIETVFPFDVAVKFVSTKFEHLERVYADIPFLLMTDLLSASPWALTIVSSELQLAPSMTTVDQLESQVDNVILQTGESASECFCLQCPSLGNIEGGVATGHYIISWKRTSAMENIPIITTVITLPHVIVENIPLHVNADLPSFGRVRESLPVKYHLQNKTDLVQDVEISVEPSDAFMFSGLKQIRLRILPGTEQEMLYNFYPLMAGYQQLPSLNINLLRFPNFTNQLLRRFIPTSIFVKPQGRLMDDTSIAAA [TRAPPC11],-0.216,50.7,50.3,0.0283,-0.012,-0.13
